Reference: PMC11053944, “FRET Assays for the Identification of C. albicans HSP90-Sba1 and Human HSP90α-p23 Binding Inhibitors” (Pharmaceuticals, 2024)
“And” between values parts separate entries of the source, which are not always exact repeats. Equal entries are not always repeated.

Key:
human HSP90α-mNeonGreen = target: T1, human HSP90α-mNeonGreen (human, UniProt P07900 1-732); test: FRET or BRET; competition, human: 1 µM HSP90α-mNeonGreen and 1 µM p23-mScarlet-I with unlabeled p23 0-50,000 nM (lowest non-zero 23 nM), reaction buffer with 5 mM ATP; relative IC50 (four parameters), Ki by One Site - Fit Ki; conditions: both partners purified
T1 construct: human HSP90α, UniProt P07900; DNA from a plasmid of a previous work of the lab; Cloned by restriction-ligation on the basis of the C. albicans FRET plasmids (His6, FXa site, protein, mNeonGreen at the C-terminus); also called His6-HSP90α-mNeonGreen; source: E. coli Rosetta2(DE3) pLysS, purified (Ni-NTA, gel filtration); not shown: mNeonGreen, C-terminal, kept

[1] = target: the molecule itself; test: cross-linking; glutaraldehyde cross-linking and SDS-PAGE (Coomassie): 10 µM HSP90 with equimolar Sba1 or mScarlet-I, reaction buffer, 15 min 30 °C, 5 mM ATP or 2 mM AMP-PNP; cross-linking 2 min at room temperature
[2] = target: T2, C. albicans HSP90E36A-mNeonGreen (C. albicans, UniProt P46598 1-707, E36A); test: FRET or BRET; Kd determination, C. albicans: 200 nM HSP90E36A-mNeonGreen, Sba1-mScarlet-I 0-3000 nM (lowest non-zero 10 nM), reaction buffer with 5 mM ATP, 30 °C (text; the legend of Figure 2 says 37 °C), measured after 180 min; mNeonGreen control subtracted; nonlinear regression; conditions: both partners purified
T2 construct: HSP90 of C. albicans, UniProtKB P46598, ATP-hydrolysis-defective mutant E36A; As m1 with E36A; GGGGS linker before mNeonGreen; also called His6-HSP90E36A-mNeonGreen; source: E. coli BL21(DE3), purified (Ni-NTA, gel filtration); not shown: mNeonGreen, C-terminal, kept

[3] = target: T3, human HSP90αE47A-mNeonGreen (human, UniProt P07900 1-732, E47A); test: FRET or BRET; Kd determination, human: 200 nM HSP90αE47A-mNeonGreen, p23-mScarlet-I 0-3000 nM (lowest non-zero 10 nM), reaction buffer with 5 mM ATP, 37 °C, measured after 180 min; mNeonGreen control subtracted; nonlinear regression; conditions: both partners purified
T3 construct: human HSP90α, UniProt P07900, ATP-hydrolysis-defective mutant E47A; As m3 with E47A; also called His6-HSP90αE47A-mNeonGreen; source: E. coli Rosetta2(DE3) pLysS, purified (Ni-NTA, gel filtration); not shown: mNeonGreen, C-terminal, kept

[4] = target: T4, C. albicans HSP90-mNeonGreen (C. albicans, UniProt P46598 1-707); test: FRET or BRET; competition, C. albicans: 1 µM HSP90-mNeonGreen and 1 µM Sba1-mScarlet-I with unlabeled Sba1 0-25,000 nM (lowest non-zero 12 nM), reaction buffer with 5 mM ATP; relative IC50 (four parameters), Ki by One Site - Fit Ki; conditions: both partners purified
T4 construct: HSP90 of C. albicans, UniProtKB P46598; pET-11d: N-terminal His6, FXa site, XhoI site, protein, KpnI site; mNeonGreen joined to the C-terminus of HSP90 by a flexible linker GGGGS; No cleavage of the His6 tag is told; also called His6-HSP90-mNeonGreen; source: E. coli BL21(DE3), purified (Ni-NTA, gel filtration); not shown: mNeonGreen, C-terminal, kept

B1: human p23 (unlabeled) (natural protein, UniProt Q15185 1-160, looked up)
chain: MQPASAKWYDRRDYVFIEFCVEDSKDVNVNFEKSKLTFSCLGGSDNFKHLNEIDLFHCIDPNDSKHKRTDRSILCCLRKGESGQSWPRLTKERAKLNWLSVDFNNWKDWEDDSDEDMSNFDRFSEMMNNMGGDEDVDLPEVDGADDDSQDSDDEKMPDLE
notes: human p23, UniProt Q15185; N-terminal His6 followed by an FXa site; also called His6-p23; unlabeled p23; source: E. coli Rosetta2(DE3) pLysS, purified (Ni-NTA, gel filtration)
- IC50 (human HSP90α-mNeonGreen): 1420 nM
- Ki (human HSP90α-mNeonGreen): 100 nM

B2: C. albicans HSP90 (without fluorescent protein) (natural protein)
chain: not shown
notes: HSP90 of C. albicans, UniProtKB P46598; Printed mass of the monomer 82.5 kDa, dimer 165 kDa; N-terminal His6 followed by an FXa site; also called His6-HSP90; source: E. coli BL21(DE3), purified (Ni-NTA, gel filtration)
- stoichiometry N [1]: 2

B3: C. albicans Sba1-mScarlet-I (natural protein, UniProt A0A1D8PQ94 1-221, looked up)
chain: MSSTTTQTPTVLWAQRSSEDDAAKNIIYLTIQISDPIDLKIDLKSDHLIIDSKSNDSVYSSIDYHLQIDFFKEIDPDQSKINTENGSHIFMILRKKDQQEEYWPRLTKEKLKYHYIKTDFDKWVDEDEQDEVKDDPNDFGGPGGPGGAMDFSQMLSGMGGLGGAGGSGGPGGVDLSALASQLGQAGGAGGAAGLDGEEGEEGEAEAKEAQEESNTTATEKE
notes: Sba1 of C. albicans, UniProtKB A0A1D8PQ94; mScarlet-I fused to the 3' end of Sba1, analogously to HSP90-mNeonGreen (there with a GGGGS linker); N-terminal His6 followed by an FXa site; also called His6-Sba1-mScarlet-I; source: E. coli BL21(DE3), purified (Ni-NTA, gel filtration); not shown: mScarlet-I, C-terminal, kept
- Kd [2]: 100 nM

B4: human p23-mScarlet-I (natural protein, UniProt Q15185 1-160, looked up)
chain: B1 chain
notes: human p23, UniProt Q15185; Cloned by restriction-ligation on the basis of the C. albicans FRET plasmids (His6, FXa site, protein, mScarlet-I at the C-terminus); also called His6-p23-mScarlet-I; source: E. coli Rosetta2(DE3) pLysS, purified (Ni-NTA, gel filtration); not shown: mScarlet-I, C-terminal, kept
- Kd [3]: 210 nM and 220 nM

B5: C. albicans Sba1 (unlabeled) (natural protein, UniProt A0A1D8PQ94 1-221, looked up)
chain: B3 chain
notes: Sba1 of C. albicans, UniProtKB A0A1D8PQ94; N-terminal His6 followed by an FXa site; also called His6-Sba1; unlabeled Sba1; source: E. coli BL21(DE3), purified (Ni-NTA, gel filtration)
- IC50 [4]: 1950 nM
- Ki [4]: 100 nM
